Measured values reported in patent US9580464B2, “Anti-inflammatory proteins and peptides and methods of preparation and use thereof” (ManukaMed Limited, priority 2012, dated 2017).
Blank lines part the entries; values can stand above or below the molecule they belong to.

Key:
Cathepsin B = Cathepsin B (Bos taurus, UniProt P07688); test: Cathepsin B digestion of MGO-modified MRJP, native PAGE; format: biochemical; details: 37° C.
Protocol: Cathepsin B working reagent solution was prepared (1:50) from Cathepsin B stock solution in the buffer system containing 100 mM sodium acetate, 2 mM EDTA and 2.5 mM 2-mercaptoethanol, pH 5.0.
Cathepsin digestion was performed on selected samples of SEC fractions. Typically, 10 μl of Cathepsin B working solution was mixed with 20 μl of protein sample and digested at 37° C. for overnight. After hydrolysis, the digests were prepared for native PAGE analysis.
Samples used in the Cathepsin B digestion were: 1) Crude MRJP protein; 2) Desalted fraction (first big peak) of MGO-modified MRJP at pH 4.0 for 9 days sample; 3) Desalted fraction (first big peak) of MGO-modified MRJP in PBS (pH 7.5) for 9 days sample; 4) SEC fractions of pH 5.0 fractions; 5) SEC fractions of reaction 221.
For hydrolysis, 10 μL of a 1 mg/mL solution (10 μg) of Cathepsin B was used. Thus, a very high level of enzyme activity was employed for these experiments. Moreover, the reaction was performed over two days at 37° C. Under these conditions, we expected to see complete or near complete hydrolysis of the MRJP proteins.

[1] = Anti-inflammatory activity of MGO-modified proteins (results not shown)
Description: As used herein, “anti-inflammatory capacity” is defined as the capacity to clinically reduce inflammation or the symptoms of inflammation in cellular tissue. Anti-inflammatory capacity may be determined using the phagocytosis inhibition assay (PIA) described in PCT/NZ PCT/NZ/2011/000271 or the DCFDA assay also described in PCT/NZ/2011/000271 or the anti-inflammatory capacity may also be determined by the inhibition of Cathepsin B as described in detail below.

- Hydrolysis by Cathepsin B (Cathepsin B): readily degraded
B1: native hexamer form of MRJP1: unmodified major royal jelly protein 1 (SEQ ID NO: 1), about 300 kDa hexamer (protein, listed as Apis mellifera)
chain: MTRLFMLVCLGIVCQGTTGNILRGESLNKSLPILHEWKFFDYDFGSDERRQDAILSGEYDYKNNYPSDIDQWHDKIFVTMLRYNGVPSSLNVISKKVGDGGPLLQPYPDWSFAKYDDCSGIVSASKLAIDKCDRLWVLDSGLVNNTQPMCSPKLLTFDLTTSQLLKQVEIPHDVAVNATTGKGRLSSLAVQSLDCNTNSDTMVYIADEKGEGLIVYHNSDDSFHRLTSNTFDYDPKFTKMTIDGESYTAQDGISGMALSPMTNNLYYSPVASTSLYYVNTEQFRTSDYQQNDIHYEGVQNILDTQSSAKVVSKSGVLFFGLVGDSALGCWNEHRTLERHNIRTVAQSDETLQMIASMKIKEALPHVPIFDRYINREYILVLSNKMQKMVNNDFNFDDVNFRIMNANVNELILNTRCENPDNDRTPFKISIHL
modifications: native hexamer

- Hydrolysis by Cathepsin B (Cathepsin B): readily degraded
B2: monomeric form of royalactin: unmodified monomeric MRJP1 (royalactin) (protein)
chain: NILRGESLNKSLPILHEWKFFDYDFGSDERRQDAILSGEYDYKNNYPSDIDQWHDKIFVTMLRYNGVPSSLNVISKKVGDGGPLLQPYPDWSFAKYDDCSGIVSASKLAIDKCDRLWVLDSGLVNNTQPMCSPKLLTFDLTTSQLLKQVEIPHDVAVNATTGKGRLSSLAVQSLDCNTNSDTMVYIADEKGEGLIVYHNSDDSFHRLTSNTFDYDPKFTKMTIDGESYTAQDGISGMALSPMTNNLYYSPVASTSLYYVNTEQFRTSDYQQNDIHYEGVQNILDTQSSAKVVSKSGVLFFGLVGDSALGCWNEHRTLERHNIRTVAQSDETLQMIASMKIKEALPHVPIFDRYINREYILVLSNKMQKMVNNDFNFDDVNFRIMNANVNELILNTRCENPDNDRTPFKISIHL

B3: MGO-modified MRJP3: major royal jelly protein 3 chemically modified by methylglyoxal (protein, UniProt Q17060 21-544, looked up)
Major royal jelly protein 3: AAVNHQRKSANNLAHSMKVIYEWKHIDFDFGSDERRDAAIKSGEFDHTKNYPFDVDRWRDKTFVTIERNNGVPSSLNVVTNKKGKGGPLLRPYPDWSFAKYEDCSGIVSAFKIAVDKFDRLWVLDSGLVNNNQPMCSPKLLTFDLKTSKLVKQVEIPHNIAVNATTGMGELVSLAVQAIDRTNTMVYIADEKGEGLIMYQNSDDSFHRLTSNTFDYDPRYTKLTVAGESFTVKNGIYGIALSPVTNNLYYSPLLSHGLYYVDTEQFSNPQYEENNVQYEGSQDILNTQSFGKVVSKNGVLFLGLVGNSGIACVNEHQVLQRESFDVVAQNEETLQMIVSMKIMENLPQSGRINDPEGNEYMLALSNRMQKIINNDFNFNDVNFRILGANVDDLMRNTRCGRYHNQNAGNQNADNQNADNQNANNQNADNQNANKQNGNRQNDNRQNDNKQNGNRQNDNKQNGNRQNDNKQNGNRQNGNKQNDNKQNGNRQNDNKRNGNRQNDNQNNQNDNNRNDNQVHHSSKLH
modifications: methylglyoxal-modified
notes: major royal jelly protein 3 chemically modified by methylglyoxal
- Anti-inflammatory activity [1]: enhanced anti-inflammatory properties
